Legend:
14-analyte M-DP panel = assay: Pharmacodynamic M-DP score, 14-analyte panel (SomaLogic SOMAscan), clinical studies in RA; format: in vivo, human; settings: for M-DP score mean difference ± SD, Good vs. No / M-DP score mean ± SD, DAS28-CRP response group Good / M-DP score mean ± SD, DAS28-CRP response group Moderate / M-DP score mean ± SD, DAS28-CRP response group No: response at week 24
Source text: Serum samples and data from eight interventional clinical studies with seven different active treatments for RA or placebo treatment were obtained and analyzed: sirukumab (anti-IL-6) and placebo treatments in SIRROUND-M (NCT01689532; Takeuchi T, et al. Arthritis Res Ther. 2018 Mar. 7; 20(1): 42), SIRROUND-D (NCT01604343; Takeuchi T, et al. Ann Rheum Dis. 2017 Dec.; 76(12): 2001-2008), and SIRROUND-T (NCT01606761; Aletaha D, et al. Lancet. 2017 Mar. 25; 389(10075): 1206-1217); sirukumab and adalimumab (anti-TNF-alpha) treatments in SIRROUND-H (NCT02019472; Taylor PC, et al. Ann Rheum Dis. 2018 May; 77(5): 658-666); golimumab (anti-TNF-alpha) treatment in GO-FURTHER (NCT00973479; Weinblatt ME, et al. Ann Rheum Dis. 2013 March; 72(3): 381-9); guselkumab (anti-IL-23p19), ustekinumab (anti-IL-12/IL-23p40), and placebo treatments in CNTO1275ARA2001 (NCT01645280; Cox JD, et al. […]); JNJ-40346527 (colony-stimulating factor-1 inhibitor) and placebo treatments in 40346527ARA2001 (NCT01597739; Genovese MC, et al. J Rheumatol. 2015 October; 42(10): 1752-60). Plasma samples were obtained from the RA-MAP TACERA study (Cope AP, et al. Nat Rev Rheumatol. 2018 January; 14(1): 53-60) before (baseline) and 6-months after initiation of conventional synthetic disease-modifying anti-rheumatic drugs (csDMARDs). Details of treatment dose groups, concomitant methotrexate use, and previous experience with csDMARDs and biologics are reported in Table 1. The studies were conducted in accordance with the Declaration of Helsinki. The study protocols were reviewed and approved by an independent ethics committee or institutional review board for each study center. Written informed consent was obtained from all patients before study entry. Additional study details and patient characteristics are available in the referenced publications for each study. For SIRROUND-D and SIRROUND-T studies, sets of serum samples from demographically-matched healthy controls were obtained from commercial sources (BioIVT, Westbury, N.Y.).
Serum samples from baseline (week 0) and the time points indicated in Table 1 were provided for quantification of 1189 serum analytes using the SomaScan v3.1 platform (SomaLogic, Boulder, Colo.; www.somalogic.com), with the exception of RA-MAP TACERA, for which plasma samples were analyzed for 1301 analytes using the SomaScan v3.2 platform. For some studies, a redacted dataset reporting data for a subset of the analytes was obtained. Relative fluorescence unit (RFU) data were sequentially normalized for hybridization controls (internal standards per samples), median signal across all samples (assumes same total protein concentration across sample set), and calibration controls (common sample standards across analysis plates). Samples failed quality control standards defined by Somalogic were excluded from analyses. The normalized RFU values were log2-transformed for subsequent analyses.
Changes in analyte expression levels were calculated for individual samples as the log2 transform of the ratio of the analyte level at the indicated time point (visit level) over the analyte level at baseline (baseline level) for a given subject, i.e., log 2(visit level/baseline level). Changes in RA disease-associated analytes per sample were summarized using a pharmacodynamic (PD) molecular disease profile (M-DP) score, defined as the median value of the log 2(visit level/baseline level) values for analytes in the defined M-DP analyte set. […] PD M-DP scores in the log 2(visit level/baseline level) scale can be transformed to percent change from baseline, using the transformation: (2^M-DP score−1)×100%.
Statistical analyses were performed on log2-transformed data, for either normalized Relative fluorescence unit (RFU) datasets or within-subject fold/baseline datasets. Significance of differences between groups was evaluated using General Linear Models, with t-tests when comparing two groups. […]

RA patients = settings: RA patients; cited from earlier work
[1] = SIRROUND-D, score at week 4, sirukumab SC 50 mg q4w
[2] = SIRROUND-D, score at week 4, sirukumab SC 100 mg q2w
[3] = SIRROUND-D, score at week 24, sirukumab SC 50 mg q4w
[4] = SIRROUND-D, score at week 24, sirukumab SC 100 mg q2w
[5] = SIRROUND-H, score at week 4, sirukumab SC 50 mg q4w or adalimumab SC 40 mg q2w
[6] = SIRROUND-M, score at week 4, sirukumab SC 50 mg q4w
[7] = SIRROUND-M, score at week 4, sirukumab SC 100 mg q2w
[8] = SIRROUND-T, score at week 4, sirukumab SC 50 mg q4w
[9] = SIRROUND-T, score at week 4, sirukumab SC 100 mg q2w
[10] = SIRROUND-T, score at week 24, sirukumab SC 50 mg q4w
[11] = SIRROUND-T, score at week 24, sirukumab SC 100 mg q2w

B1: Sirukumab (antibody, chains of the INN, looked up, V domains shown)
VH: EVQLVESGGGLVQPGGSLRLSCAASGFTFSPFAMSWVRQAPGKGLEWVAKISPGGSWTYYSDTVTGRFTISRDNAKNSLYLQMNSLRAEDTAVYYCARQLWGYYALDIWGQGTTVTVSS
VL: EIVLTQSPATLSLSPGERATLSCSASISVSYMYWYQQKPGQAPRLLIYDMSNLASGIPARFSGSGSGTDFTLTISSLEPEDFAVYYCMQWSGYPYTFGGGTKVEIK
notes: a human anti-interleukin-6 (IL-6) monoclonal antibody
M-DP score mean ± SD, All treated (14-analyte M-DP panel; [1]): −0.42 ± 0.34 log2 (fold/baseline)
M-DP score mean ± SD, All treated (14-analyte M-DP panel; SIRROUND-D, score at week 4, sirukumab SC 50 mg q4w, listed as sirukumab): -0.42±0.34 log2 (fold/baseline)
M-DP score mean difference ± SD, Good vs. No (14-analyte M-DP panel; [1]): −0.08 ± 0.33 log2 (fold/baseline)
M-DP score mean ± SD, DAS28-CRP response group Good (14-analyte M-DP panel; [1]): −0.44 ± 0.32 log2 (fold/baseline)
M-DP score mean ± SD, DAS28-CRP response group Moderate (14-analyte M-DP panel; [1]): −0.43 ± 0.36 log2 (fold/baseline)
M-DP score mean ± SD, DAS28-CRP response group No (14-analyte M-DP panel; [1]): −0.36 ± 0.35 [44]+ log2 (fold/baseline)
M-DP score mean ± SD, All treated (14-analyte M-DP panel; [2]): −0.48 ± 0.30 log2 (fold/baseline)
M-DP score mean ± SD, All treated (14-analyte M-DP panel; SIRROUND-D, score at week 4, sirukumab SC 100 mg q2w, listed as sirukumab): -0.48±0.30 log2 (fold/baseline)
M-DP score mean difference ± SD, Good vs. No (14-analyte M-DP panel; [2]): −0.27 ± 0.30 log2 (fold/baseline)
M-DP score mean ± SD, DAS28-CRP response group Good (14-analyte M-DP panel; [2]): −0.50 ± 0.29 log2 (fold/baseline)
M-DP score mean ± SD, DAS28-CRP response group Moderate (14-analyte M-DP panel; [2]): −0.51 ± 0.30 log2 (fold/baseline)
M-DP score mean ± SD, DAS28-CRP response group No (14-analyte M-DP panel; [2]): −0.33 ± 0.32 [28]+ log2 (fold/baseline)
M-DP score mean ± SD, All treated (14-analyte M-DP panel; [3]): −0.61 ± 0.40 log2 (fold/baseline)
M-DP score mean ± SD, DAS28-CRP response group Good (14-analyte M-DP panel; [3]): −0.65 ± 0.39 log2 (fold/baseline)
M-DP score mean ± SD, DAS28-CRP response group Moderate (14-analyte M-DP panel; [3]): −0.59 ± 0.39 log2 (fold/baseline)
M-DP score mean ± SD, DAS28-CRP response group No (14-analyte M-DP panel; [3]): 0.06 ± 0.00 [1] log2 (fold/baseline)
M-DP score mean ± SD, All treated (14-analyte M-DP panel; [4]): −0.69 ± 0.31 log2 (fold/baseline)
M-DP score mean ± SD, DAS28-CRP response group Good (14-analyte M-DP panel; [4]): −0.69 ± 0.34 log2 (fold/baseline)
M-DP score mean ± SD, DAS28-CRP response group Moderate (14-analyte M-DP panel; [4]): −0.75 ± 0.20 log2 (fold/baseline)
M-DP score mean ± SD, DAS28-CRP response group No (14-analyte M-DP panel; [4]): −0.52 ± 0.37 [2] log2 (fold/baseline)
M-DP score GMean decrease from baseline (14-analyte M-DP panel; SIRROUND-D, week 4, sirukumab 50 mg q4w): 21%
M-DP score GMean decrease from baseline (14-analyte M-DP panel; SIRROUND-D, week 4, sirukumab 100 mg q2w): 25%
M-DP score mean ± SD, All treated (14-analyte M-DP panel; [5]): −0.41 ± 0.30 log2 (fold/baseline)
M-DP score mean difference ± SD, Good vs. No (14-analyte M-DP panel; [5]): −0.07 ± 0.30 log2 (fold/baseline)
M-DP score mean ± SD, DAS28-CRP response group Good (14-analyte M-DP panel; [5]): −0.45 ± 0.33 log2 (fold/baseline)
M-DP score mean ± SD, DAS28-CRP response group Moderate (14-analyte M-DP panel; [5]): −0.40 ± 0.30 log2 (fold/baseline)
M-DP score mean ± SD, DAS28-CRP response group No (14-analyte M-DP panel; [5]): −0.38 ± 0.22 [12]+ log2 (fold/baseline)
M-DP score mean ± SD, All treated (14-analyte M-DP panel; [6]): −0.51 ± 0.37 log2 (fold/baseline)
M-DP score mean difference ± SD, Good vs. No (14-analyte M-DP panel; [6]): −0.40 ± 0.37 log2 (fold/baseline)
M-DP score mean ± SD, DAS28-CRP response group Good (14-analyte M-DP panel; [6]): −0.59 ± 0.38 log2 (fold/baseline)
M-DP score mean ± SD, DAS28-CRP response group Moderate (14-analyte M-DP panel; [6]): −0.46 ± 0.30 log2 (fold/baseline)
M-DP score mean ± SD, DAS28-CRP response group No (14-analyte M-DP panel; [6]): −0.19 ± 0.25 [7] log2 (fold/baseline)
M-DP score mean ± SD, All treated (14-analyte M-DP panel; [7]): −0.59 ± 0.29 log2 (fold/baseline)
M-DP score mean ± SD, DAS28-CRP response group Good (14-analyte M-DP panel; [7]): −0.55 ± 0.27 log2 (fold/baseline)
M-DP score mean ± SD, DAS28-CRP response group Moderate (14-analyte M-DP panel; [7]): −0.70 ± 0.34 log2 (fold/baseline)
M-DP score mean ± SD, DAS28-CRP response group No (14-analyte M-DP panel; [7]): −0.51 ± 0.10 [2] log2 (fold/baseline)
M-DP score mean ± SD, All treated (14-analyte M-DP panel; [8]): −0.34 ± 0.28 log2 (fold/baseline)
M-DP score mean difference ± SD, Good vs. No (14-analyte M-DP panel; [8]): −0.06 ± 0.29 log2 (fold/baseline)
M-DP score mean ± SD, DAS28-CRP response group Good (14-analyte M-DP panel; [8]): −0.35 ± 0.30 log2 (fold/baseline)
M-DP score mean ± SD, DAS28-CRP response group Moderate (14-analyte M-DP panel; [8]): −0.37 ± 0.26 log2 (fold/baseline)
M-DP score mean ± SD, DAS28-CRP response group No (14-analyte M-DP panel; [8]): −0.29 ± 0.26 [30]+ log2 (fold/baseline)
M-DP score mean ± SD, All treated (14-analyte M-DP panel; [9]): −0.49 ± 0.35 log2 (fold/baseline)
M-DP score mean difference ± SD, Good vs. No (14-analyte M-DP panel; [9]): −0.20 ± 0.34 log2 (fold/baseline)
M-DP score mean ± SD, DAS28-CRP response group Good (14-analyte M-DP panel; [9]): −0.55 ± 0.35 log2 (fold/baseline)
M-DP score mean ± SD, DAS28-CRP response group Moderate (14-analyte M-DP panel; [9]): −0.54 ± 0.35 log2 (fold/baseline)
M-DP score mean ± SD, DAS28-CRP response group No (14-analyte M-DP panel; [9]): −0.35 ± 0.33 [39]+ log2 (fold/baseline)
M-DP score mean ± SD, All treated (14-analyte M-DP panel; [10]): −0.41 ± 0.33 log2 (fold/baseline)
M-DP score mean difference ± SD, Good vs. No (14-analyte M-DP panel; [10]): −0.12 ± 0.34 log2 (fold/baseline)
M-DP score mean ± SD, DAS28-CRP response group Good (14-analyte M-DP panel; [10]): −0.46 ± 0.35 log2 (fold/baseline)
M-DP score mean ± SD, DAS28-CRP response group Moderate (14-analyte M-DP panel; [10]): −0.41 ± 0.29 log2 (fold/baseline)
M-DP score mean ± SD, DAS28-CRP response group No (14-analyte M-DP panel; [10]): −0.34 ± 0.31 [31]+ log2 (fold/baseline)
M-DP score mean ± SD, All treated (14-analyte M-DP panel; [11]): −0.53 ± 0.36 log2 (fold/baseline)
M-DP score mean difference ± SD, Good vs. No (14-analyte M-DP panel; [11]): −0.18 ± 0.35 log2 (fold/baseline)
M-DP score mean ± SD, DAS28-CRP response group Good (14-analyte M-DP panel; [11]): −0.59 ± 0.38 log2 (fold/baseline)
M-DP score mean ± SD, DAS28-CRP response group Moderate (14-analyte M-DP panel; [11]): −0.54 ± 0.37 log2 (fold/baseline)
M-DP score mean ± SD, DAS28-CRP response group No (14-analyte M-DP panel; [11]): −0.41 ± 0.28 [40]+ log2 (fold/baseline)
M-DP score GMean decrease from baseline (14-analyte M-DP panel; SIRROUND-T, week 4, sirukumab 50 mg q4w): 22%
M-DP score GMean decrease from baseline (14-analyte M-DP panel; SIRROUND-T, week 4, sirukumab 100 mg q2w): 29%
clinical efficacy in the underlying clinical studies (RA patients): clinically efficacious

Reference: patent US20230243822A1, “MOLECULAR DISEASE PROFILE AND USE THEREOF FOR MONITORING AND TREATING RHEUMATAOID ARTHRITIS” (JANSSEN BIOTECH, INC., priority 2020, published 2023)
